PMC2133019 (The Journal of Cell Biology, 1998)
acyl = not defined here

Key:
[1] = target: clathrin/AP cages (Bos taurus, UniProt P49951); test: NMR line-broadening with assembled clathrin/AP cages; type: binding, bovine; settings: 2.5 mM peptide
[2] = target: assembled clathrin/AP cages (bovine (purified from bovine brain)) (UniProt P49951); test: NMR line-broadening
[3] = 20 mg/ml cages, line-width with cages minus without

Sequence of clathrin/AP cages (P49951 whole entry): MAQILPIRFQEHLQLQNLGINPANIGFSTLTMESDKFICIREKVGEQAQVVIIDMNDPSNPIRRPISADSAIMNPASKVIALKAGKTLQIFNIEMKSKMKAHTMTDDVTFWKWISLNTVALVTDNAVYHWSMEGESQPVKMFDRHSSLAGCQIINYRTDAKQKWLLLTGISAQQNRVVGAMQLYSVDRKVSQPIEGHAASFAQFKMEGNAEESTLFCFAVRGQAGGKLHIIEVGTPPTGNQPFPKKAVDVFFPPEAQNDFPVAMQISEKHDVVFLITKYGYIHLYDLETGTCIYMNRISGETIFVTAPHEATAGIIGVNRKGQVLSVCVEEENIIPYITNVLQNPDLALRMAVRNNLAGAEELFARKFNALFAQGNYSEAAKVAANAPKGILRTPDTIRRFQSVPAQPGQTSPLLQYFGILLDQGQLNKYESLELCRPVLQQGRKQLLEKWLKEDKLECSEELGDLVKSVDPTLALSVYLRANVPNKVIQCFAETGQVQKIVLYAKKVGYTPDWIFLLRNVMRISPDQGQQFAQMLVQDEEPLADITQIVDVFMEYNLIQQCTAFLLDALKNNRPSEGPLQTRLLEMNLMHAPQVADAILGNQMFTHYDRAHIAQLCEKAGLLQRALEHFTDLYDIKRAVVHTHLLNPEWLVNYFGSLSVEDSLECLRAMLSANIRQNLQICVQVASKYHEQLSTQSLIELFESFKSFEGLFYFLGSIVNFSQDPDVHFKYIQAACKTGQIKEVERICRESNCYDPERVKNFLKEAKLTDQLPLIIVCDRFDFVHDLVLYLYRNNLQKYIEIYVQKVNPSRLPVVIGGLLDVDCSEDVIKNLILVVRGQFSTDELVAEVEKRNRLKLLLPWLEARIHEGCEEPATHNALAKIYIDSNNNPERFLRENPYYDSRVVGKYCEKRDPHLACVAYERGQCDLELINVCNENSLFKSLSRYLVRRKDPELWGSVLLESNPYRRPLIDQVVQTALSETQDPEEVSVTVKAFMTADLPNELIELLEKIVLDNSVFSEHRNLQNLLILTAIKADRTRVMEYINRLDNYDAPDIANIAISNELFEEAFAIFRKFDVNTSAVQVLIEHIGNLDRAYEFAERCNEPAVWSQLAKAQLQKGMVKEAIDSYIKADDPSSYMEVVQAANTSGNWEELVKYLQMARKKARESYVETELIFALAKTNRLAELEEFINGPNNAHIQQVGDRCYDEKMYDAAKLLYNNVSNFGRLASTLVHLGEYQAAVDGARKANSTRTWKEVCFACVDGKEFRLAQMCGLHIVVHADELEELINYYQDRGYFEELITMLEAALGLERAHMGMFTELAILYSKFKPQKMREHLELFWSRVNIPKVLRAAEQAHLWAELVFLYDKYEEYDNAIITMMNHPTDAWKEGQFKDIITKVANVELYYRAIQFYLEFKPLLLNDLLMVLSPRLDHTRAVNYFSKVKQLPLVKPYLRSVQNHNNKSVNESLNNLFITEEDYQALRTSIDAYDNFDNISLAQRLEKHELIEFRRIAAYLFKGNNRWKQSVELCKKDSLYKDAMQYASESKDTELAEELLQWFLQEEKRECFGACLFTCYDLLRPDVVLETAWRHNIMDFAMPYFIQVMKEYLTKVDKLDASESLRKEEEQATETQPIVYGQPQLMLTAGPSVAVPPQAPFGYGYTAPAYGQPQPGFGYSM
Sequence of clathrin/AP cages (P04973 whole entry partner): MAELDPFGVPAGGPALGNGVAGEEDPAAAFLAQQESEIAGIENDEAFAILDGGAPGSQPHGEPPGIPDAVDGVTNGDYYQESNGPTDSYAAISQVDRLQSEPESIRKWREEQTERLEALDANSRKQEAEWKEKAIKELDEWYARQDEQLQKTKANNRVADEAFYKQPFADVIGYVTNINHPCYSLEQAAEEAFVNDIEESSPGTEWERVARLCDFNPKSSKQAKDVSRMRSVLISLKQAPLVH
Sequence of clathrin/AP cages (P04975 whole entry partner): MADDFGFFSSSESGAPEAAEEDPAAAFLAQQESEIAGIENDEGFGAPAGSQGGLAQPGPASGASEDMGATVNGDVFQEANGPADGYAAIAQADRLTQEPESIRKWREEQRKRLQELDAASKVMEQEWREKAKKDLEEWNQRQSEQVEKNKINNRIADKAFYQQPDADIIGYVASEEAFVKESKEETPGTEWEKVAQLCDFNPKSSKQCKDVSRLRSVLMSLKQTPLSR
Sequence of assembled clathrin/AP cages (bovine (purified from bovine brain)) (P49951 whole entry, looked up): as the sequence (P49951 whole entry) above

Molecule	line-broadening Phe εH [1, 3] [Hz]	line-broadening Thr10 γH [1, 3] [Hz]	line-broadening Tyr εH [1, 3] [Hz]	line-broadening Val γH1 [1, 3] [Hz]	line-broadening Val γH2 [1, 3] [Hz]	cage-induced line-broadening (in words) ([1]; 20 mg/ml clathrin/AP cages, pH 6.0)	line-broadening, Phe εH [2] [Hz]	line-broadening, Thr9 γH [2] [Hz]	line-broadening, Thr10 γH [2] [Hz]	line-broadening, Tyr εH [2] [Hz]	line-broadening, Val γH1 [2] [Hz]	line-broadening, Val γH2 [2] [Hz]
FDNPVYQKTT (acyl-FDNPVYQKTT-OH; reading uncertain; also: acylated N-terminus, acyl group not given here)	3.60	2.95	3.45	5.20	3.82	pronounced increase in the line widths	–	–	–	–	–	–
acyl-FDNPVYQKTT-OH (reading uncertain; also: acylated NH2 terminus) [wild-type LDL receptor internalization motif decapeptide …]	–	–	–	–	–	–	3.6	3.18	2.95	3.45	5.2	3.82
